IntAct's records for PubMed 20095964

B1: Junctophilin-2 (Mus musculus), Q9ET78 (parent)
chain: MSGGRFDFDDGGAYCGGWEGGKAHGHGLCTGPKGQGEYSGSWNFGFEVAGVYTWPSGNTFEGYWSQGKRHGLGIETKGRWLYKGEWTHGFKGRYGIRQSTNSGAKYEGTWNNGLQDGYGTETYADGGTYQGQFTNGMRHGYGVRQSVPYGMAVVVRSPLRTSLSSLRSEHSNGTVAPDSPAADGPMLPSPPVPRGGFALTLLATAEAARPQGLFTRGTLLGRLRRSESRTSLGSQRSRLSFLKSELSSGASDAASTGSLAEGAEGPDDAAAPFDADIDATTTETYMGEWKNDKRSGFGVSERSSGLRYEGEWLDNLRHGYGRTTLPDGHREEGKYRHNVLVKGTKRRVLPLKSSKVRQKVEHGVEGAQRAAAIARQKAEIAASRTSHAKAKAEAAEQAALAANQESNIARTLAKELAPDFYQPGPEYQKRRLLQEILENSESLLEPPERGLGTGLPERPRESPQLHERETPQPEGGPPSPAGTPPQPKRPRPGASKDGLLSPGSWNGEPGGEGSRPATPSDGAGRRSPARPASEHMAIEALQPPPAPSQEPEVAMYRGYHSYAVRTGPPEPPPLEDEQEPEPEPEPEVRRSDSAPPSPVSATVPEEEPPAPRSPVPAKQATLEPKPIVPKAEPKAKARKTEARGLSKAGAKKKGRKEVAQAKEAEVEVEEVPNTVLICMVILLNIGLAILFVHLLT
partner: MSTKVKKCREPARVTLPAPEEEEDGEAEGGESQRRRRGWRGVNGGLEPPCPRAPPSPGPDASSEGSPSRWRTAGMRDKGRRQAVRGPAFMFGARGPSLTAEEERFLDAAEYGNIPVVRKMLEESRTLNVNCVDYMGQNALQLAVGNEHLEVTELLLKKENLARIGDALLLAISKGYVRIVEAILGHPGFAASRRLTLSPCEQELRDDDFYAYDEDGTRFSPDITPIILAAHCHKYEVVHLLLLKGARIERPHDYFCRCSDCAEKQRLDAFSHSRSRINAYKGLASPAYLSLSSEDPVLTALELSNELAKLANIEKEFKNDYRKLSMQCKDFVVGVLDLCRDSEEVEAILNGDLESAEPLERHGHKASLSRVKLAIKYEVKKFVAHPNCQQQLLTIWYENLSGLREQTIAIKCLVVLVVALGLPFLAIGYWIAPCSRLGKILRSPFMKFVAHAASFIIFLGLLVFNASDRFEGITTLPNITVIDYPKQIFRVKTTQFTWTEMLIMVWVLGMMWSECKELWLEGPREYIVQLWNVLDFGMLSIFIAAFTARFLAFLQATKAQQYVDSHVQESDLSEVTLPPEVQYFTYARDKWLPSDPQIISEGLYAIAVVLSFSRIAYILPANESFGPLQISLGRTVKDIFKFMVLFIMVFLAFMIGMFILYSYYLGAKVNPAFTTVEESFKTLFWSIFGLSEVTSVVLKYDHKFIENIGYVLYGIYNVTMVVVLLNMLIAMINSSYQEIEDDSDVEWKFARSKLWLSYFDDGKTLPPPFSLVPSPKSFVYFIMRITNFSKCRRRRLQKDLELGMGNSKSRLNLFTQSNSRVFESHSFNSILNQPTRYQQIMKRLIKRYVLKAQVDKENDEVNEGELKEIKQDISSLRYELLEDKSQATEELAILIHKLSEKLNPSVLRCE

Variants of: B1
Conditions: with trpc3_mouse Trpc3, Q9QZC1

effect of a mutation on the interaction	Variant
decreasing interaction	S165F
